These results are taken from paper PMC10878513, “SRPK2 Mediates HBV Core Protein Phosphorylation and Capsid Assembly via Docking Interaction” (PLOS Pathogens, 2024).

Series [1] concerns the molecule itself. Kind of series: SEC; without ATP; proteins in disassembly buffer (1.5 M GuHCl), GuHCl removed by dialysis against reassembly buffer; analytical Superdex 200 10/300 GL; peak fractions by SDS-PAGE. For orientation: Size exclusion chromatography separates by hydrodynamic size, large species first.
Series [2] deals with the molecule itself. Put plainly: SEC; SRPK2ΔS1/CpWT complex supplemented with 5 mM MgCl2 and 0.1 mM ATP; analytical Superdex 200 10/300 GL; void-volume peak also imaged by negative-stain EM.
Series [3] has as its target T1, His-tagged SRPK1WT (UniProt Q96SB4 1-655).
T1 construct: serine-arginine protein kinase 1 (SRPK1), wild type; Labelled on the His tag with RED-tris-NTA for MST; also called wild-type SRPK1; source: recombinant, purified; not shown: His tag, N-terminal, kept
Kind of series: MST; 200 nM N-terminally His-tagged SRPK1/2 labelled with RED-tris-NTA as target; GST-CpY132A as ligand in 2-fold serial dilution from 20 μM to 0.61 nM; room temperature; Monolith NT.115, MST power 40%. As to conditions: both partners purified.

Series [4] deals with T2, His-tagged SRPK2WT (full-length SRPK2) (UniProt P78362 1-688).
T2 construct: serine-arginine protein kinase 2 (SRPK2), full length, wild type; Cloned in pET-15b; Labelled on the His tag with RED-tris-NTA for MST; also called His-SRPK2WT; wild-type SRPK2; source: E. coli BL21(DE3)pLysS, purified (Ni-NTA, SEC); not shown: His tag, N-terminal, kept
The series is described as above. Particulars: both partners purified.

Changes are numbered by the printed parent chain. In names and notes the source's numbering stands.

T1 sequence (Q96SB4 whole entry): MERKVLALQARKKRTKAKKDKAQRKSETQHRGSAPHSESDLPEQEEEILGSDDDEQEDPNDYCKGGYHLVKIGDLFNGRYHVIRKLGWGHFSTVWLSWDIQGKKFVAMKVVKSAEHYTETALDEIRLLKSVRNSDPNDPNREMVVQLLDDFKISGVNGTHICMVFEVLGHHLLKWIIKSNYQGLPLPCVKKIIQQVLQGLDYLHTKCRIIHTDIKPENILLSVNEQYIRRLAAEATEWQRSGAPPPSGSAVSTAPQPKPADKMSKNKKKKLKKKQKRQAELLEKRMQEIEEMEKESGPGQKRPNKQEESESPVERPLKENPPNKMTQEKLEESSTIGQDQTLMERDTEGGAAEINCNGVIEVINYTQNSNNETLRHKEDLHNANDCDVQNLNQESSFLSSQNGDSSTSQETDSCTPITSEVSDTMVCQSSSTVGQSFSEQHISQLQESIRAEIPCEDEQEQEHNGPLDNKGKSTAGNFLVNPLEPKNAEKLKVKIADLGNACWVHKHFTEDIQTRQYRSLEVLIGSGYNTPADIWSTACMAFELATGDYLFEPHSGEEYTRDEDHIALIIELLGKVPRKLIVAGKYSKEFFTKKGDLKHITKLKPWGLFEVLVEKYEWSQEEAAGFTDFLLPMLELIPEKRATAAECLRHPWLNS
T2 sequence (P78362 whole entry): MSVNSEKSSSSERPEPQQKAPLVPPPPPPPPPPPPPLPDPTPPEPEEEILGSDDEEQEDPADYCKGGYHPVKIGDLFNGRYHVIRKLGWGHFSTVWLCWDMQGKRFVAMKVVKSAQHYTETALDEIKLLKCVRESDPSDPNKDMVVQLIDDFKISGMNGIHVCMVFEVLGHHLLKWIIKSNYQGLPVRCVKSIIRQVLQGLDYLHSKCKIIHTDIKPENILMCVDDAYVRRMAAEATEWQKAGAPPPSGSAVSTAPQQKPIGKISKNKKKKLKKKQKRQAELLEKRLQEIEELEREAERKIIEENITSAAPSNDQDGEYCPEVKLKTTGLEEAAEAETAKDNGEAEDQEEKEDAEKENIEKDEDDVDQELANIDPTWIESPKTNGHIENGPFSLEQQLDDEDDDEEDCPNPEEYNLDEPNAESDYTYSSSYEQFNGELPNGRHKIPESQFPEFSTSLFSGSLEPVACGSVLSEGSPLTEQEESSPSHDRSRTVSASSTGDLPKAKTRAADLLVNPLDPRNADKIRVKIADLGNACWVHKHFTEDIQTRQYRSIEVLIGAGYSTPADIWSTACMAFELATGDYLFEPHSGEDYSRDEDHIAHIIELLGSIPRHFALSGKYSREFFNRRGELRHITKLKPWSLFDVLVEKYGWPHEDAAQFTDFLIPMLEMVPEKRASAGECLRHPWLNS

B1: His-tagged CpWT (wild-type hepatitis B core protein) (natural protein)
chain: MDIDPYKEFGATVELLSFLPSDFFPSVRDLLDTASALYREALESPEHCSPHHTALRQAILCWGELMTLATWVGNNLEDPASRDLVVNYVNTNVGLKIRQLLWFHISCLTFGRETVLEYLVSFGVWIRTPPAYRPPNAPILSTLPETTVVRRRDRGRSPRRRTPSPRRRRSPSPRRRRSQSRESQC
notes: Hepatitis B virus core protein (Cp), subtype adw2, full length, wild type; Kept as a dimer in GuHCl; assembles into capsids (about 35 nm, typical of T = 4) when GuHCl or urea is dialysed away; The His tag is seen as extra density at the 3-fold vertices of the capsid maps; Cloned in pET-15b; also called His-CpWT; CpWT dimer; not shown: His tag, N-terminal, kept
On to B1, for which the binding result in series [1] is “binds”.

B2: CpWT phosphorylated by SRPK2ΔS1 (after addition of ATP/Mg2+) (natural protein)
chain: B1 chain
modifications: phosphorylated by SRPK2ΔS1 with ATP/Mg2+; sites and extent not stated for this sample
notes: Hepatitis B virus core protein (Cp), subtype adw2, full length, wild type; also called phosphorylated Cp; capsid formed after the addition of ATP/Mg2+; source: E. coli BL21(DE3)pLysS, purified; SRPK2ΔS1/CpWT complex supplemented with 5 mM MgCl2 and 0.1 mM ATP
Turning to B2, the binding result in series [2] is listed as “binds”.

B3: GST-tagged CpY132A (hepatitis B core protein with the mutation Y132A) (natural protein)
chain: B1 chain with Y132A
notes: Hepatitis B virus core protein (Cp), subtype adw2, full length (assembly domain 1-149, ARD 150-185); Cloned in pGEX-4T-2; also called GST–CpY132A; GST-CpY132A; source: E. coli BL21(DE3)pLysS, purified (glutathione resin); not shown: GST, N-terminal, kept
B3: the Kd (usually the constant that tells how readily two partners part at equilibrium) in series [3] was 0.0836 µM; in series [4], 0.101 µM.
